Data published in paper doi:10.1101/2020.06.17.157057.
Where two headings read alike, the source gives them in different places.

Columns and labels:
[1] = target: Maltose Binding Protein (MBP), tethered between beads by DNA handles [MBP: P0AEX9]; assay: optical tweezers
[2] = target: Maltose Binding Protein (MBP), tethered between beads by DNA handles [MBP: P0AEX9]; assay: optical tweezers; remark: listed apart in the source

| Substance | tethers that switched to a prolonged unfolded state [1] [%] | tethers that switched to a prolonged unfolded state [2] [%] |
| --- | --- | --- |
| GroEL398A (slowly hydrolyzing GroEL) (from UniProt P0A6F5 1-548) (natural protein) | 30 | – |
| GroEL (wild type) (from UniProt P0A6F5 2-525) (natural protein) | 50 | 20 |
